In the series the test system is T1, hADAR2-R2D E488Q E488Q (Homo sapiens), P78563-2.
T1 sequence: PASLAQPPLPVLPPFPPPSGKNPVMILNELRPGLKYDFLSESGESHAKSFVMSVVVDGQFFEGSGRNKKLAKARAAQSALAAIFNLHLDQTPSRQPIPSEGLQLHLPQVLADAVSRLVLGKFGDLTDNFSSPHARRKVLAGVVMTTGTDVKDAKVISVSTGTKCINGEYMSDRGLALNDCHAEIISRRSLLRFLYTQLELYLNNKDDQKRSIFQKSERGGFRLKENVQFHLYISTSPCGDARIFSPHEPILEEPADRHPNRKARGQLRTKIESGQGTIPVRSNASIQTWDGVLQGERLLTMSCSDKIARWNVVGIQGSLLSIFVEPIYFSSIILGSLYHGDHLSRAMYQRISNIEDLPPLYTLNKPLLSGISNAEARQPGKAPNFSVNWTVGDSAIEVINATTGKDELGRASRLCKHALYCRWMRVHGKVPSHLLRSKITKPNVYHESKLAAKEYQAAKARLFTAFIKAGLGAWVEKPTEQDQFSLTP
The series can be described thus: EMSA. The conditions noted are these: N at position 13 of strand 1 = 8-azanebularine; EMSA: labeled strand hybridized to complement 1:3 in 1X TE pH 7.5; protein 0.25-256 nM (GG) or 0-260 nM (UA); binding buffer, salt and temperature not given in ….

For the sequence “GCUCGCGAUGCUNGAGGGCUCUGAUAGCUACG / CGUAGCUAUCAGAGCCCCCCAGCAUCGCGAGC [GLI1 (UA) 32mer, azaN]”, the Kd was 0.9 nM.
As to “GCUCGCGAUGCGNGAGGGCUCUGAUAGCUACG / CGUAGCUAUCAGAGCCCCCCGGCAUCGCGAGC [GLI1 (GG) 32mer, azaN]”, the Kd stood at 6 nM.

The record behind these values is PMC9638939.
